Changes are numbered by the printed parent chain.

First the molecules themselves.
B1: Ab21 (antibody, V domains shown)
VH: EVMLVESGGGLVKPGGSLKLSCAASGFTFSSYTMSWVRQTPEKRLEWVATIIGGYGNTYYVDSVKGRFTISRDSAKNTLYLQMISLRSEDTALYYCTRLGQTQRNAMDYWGQGTSVTVSS
VL: DILMTQSPSSLSVSAGEKVTMSCKSSQSLLNSGNQKNYLAWYQQKPGQPPKLLIYGASTRESGVPDRFTGSGSGTDFTLTISSVQAEDLAVYYCQNDYYYPFTFGAGTKLEL
notes: mouse monoclonal (hybridoma)
B2: Ab26 (antibody, V domains shown)
VH: EVMLVESGGGLVKPGGSLKLSCTASGFTFRSYTMSWVRQTPEKRLEWVATITGGGGNTYFLDSVKGRFTFSRDNAKNALYLQMNSLRSEDTALYYCARLGQTQRNAMDYWGQGTSVTVSS
VL: B1 VL with L3V, K36M, V91I, Y98H, Y99T, F102L
notes: mouse monoclonal (hybridoma)
B3: Ab22 (antibody, V domains shown)
VH: B1 VH with V61A
VL: B1 VL with R67T
notes: mouse monoclonal (hybridoma)
B4: Ab20 (antibody, V domains shown)
VH: B1 VH with A23V, V61S, F68I
VL: B1 VL with S22N
notes: mouse monoclonal (hybridoma)
B5: Ab23 (antibody, V domains shown)
VH: B1 VH with A23V, I51L, I52S, G53V, G54V, Y55G, S74K, I84S, T97A
VL: B1 VL with L3V, Y99S, F102L
notes: mouse monoclonal (hybridoma)
B6: Ab38 (antibody, V domains shown)
VH: QIQLVQSGPELKKPGETVKISCKASGYTFTNYGMSWVKQAPGKGLKWMGWINTYSGVPTYADDFKGRFVFSLEASASTAYLQINNLKNEDAATYFCSRWSGPDPLEDHWGQGTTLTVSS
VL: QIVLTQSPAIMSASPGEKVTMTCTASLSLNYIHWYRQRSGTSPKRWIYDTSKLASGVPSRFSGSGSGTSYSLTISSMEAEDAATYYCQQWSSNPWTFGGGTKLEIK
notes: mouse monoclonal (hybridoma)
B7: Ab03 (antibody, V domains shown)
VH: EVQLQQSGPELVKPGASVKIACKASGYTFTDYNMDWVKQSHGKSLEWIGNINSYYGGTIYNQKFKGKATLTVDKSSSTAYMVLRSLTSEDNAVYYCARPHLGNALDYWGQGTSITVSS
VL: DIVVTQSPSSLTVTPGEKVTMSCKSSQSLFNSGNQKNYLSWYQQNPGQPPKLLIYWASTRQSGVPDRFTGSGSGTDFTLTISSVQAEDLAGYYCQNDYIFPLTFGAGTKLELK
notes: mouse monoclonal (hybridoma)
B8: Ab34 (antibody, V domains shown)
VH: EVLLQQSGPELVKPGASVKIPCKASGYTFSDYNMDWVKQSHGKSLEWIGHINPNNDNTIYNQKFKGKATLTVDKSSNTAYMDLRSLSSEDTAVYYCARGAYYGNSMDYWGQGTSVTVSS
VL: DIVMTQSPSSLTVTAGERVTMSCKSSQSLLNGGNQRNYLTWYQQKPGQSPKLLIYWASTWESGVPDRFTGSGSGTDFTLTISSVQAEDLAVYYCQNAYFYPYTFGGGTKLEIK
notes: mouse monoclonal (hybridoma)
B9: Ab30 (antibody, V domains shown)
VH: QVQLKESGPGLVAPSQSLSITCTVSGFSLTKFGVNWVRQPPGKGLEWLGAIWGDGSTNYHSALISRLSINKDNSKSQVFLKLSSLQNVDTATYYCAKSGYGNAMDYWGHGTSVTVSS
VL: DIVMTQSPSSLTVTTGEKVTLNCKSSQSLLNSGNLKNYLTWYQQRPGQPPKLLIYWASTRESGVPYRFTGSGSGTDFTLTISNVQAEDLAIYYCQNDYFFPFTFGSGTKLEIK
notes: mouse monoclonal (hybridoma)
B10: Ab36 (antibody, V domains shown)
VH: EVKLEESGGGLVQPGGSMKLSCVASGFTFSNYWMNWVRQSPEKGLEWVAQIRLKSDNYATHYAESVKGMFTISRDDSKSSVYLQMNNLRAEDTGIYYCTAGGDYWGQGTTLTVSS
VL: DIVMTQSQKFMSTTVGDRVSITCKASQNVGTAVAWYHQKPGQSPKLLIYSASNRYTGVPDRFIGSGSGTDFTLTISNVQSEDLGNYFCQQYINYLLTFGSGTKLEIK
notes: mouse monoclonal (hybridoma)
B11: Ab37 (antibody, V domains shown)
VH: B10 VH with S40Y, K43Q, K54N, M69R, K78R, S80T, A100G, D103E
VL: DIVMTQSQKFMSTTIGDRVSITCKASQNVDTAVAWYQQKPGQSPKLLIYSASTRYTGVPDRFTGSGSGTDFTLTISNMQSEDLADYFCQQYISYQLTFGAGTKLELK
notes: mouse monoclonal (hybridoma)
B12: Ab31 (antibody, V domains shown)
VH: QIQLAQSGPELKKPGETVKISCKASGYSFTNYGMNWVKQAPGKGLKWMGWINTYSGETKYADDFKGRFDFSLETSARTAYLQIKNLKIEDTATYFCARRDAMDYWGQGTSVTVSS
VL: DIVMTQAAPSVPVTPGESVSISCRSSKSLLNSNGNTYLYWFLQRPGQSPQLLIYRMSNLASGVPDRFSGSGSGTAFTLRISRVEAEDVGVYYCMQHLEFPFTFGSGTKLEIK
notes: mouse monoclonal (hybridoma)
B13: Ab01 (antibody, V domains shown)
VH: DVQLQESGPGLVKPSQSLSLTCSVTGYSITSGYYWNWIRQFPGNKLEWMGYITYDGSNNYNPSLKNRISITRDTSKNQFFLKLNSVTTEDAATYFCARDPNYYGTTLPAWFVYWGQGTLVTVSA
VL: DIVVTQSHKFMSTSVGDRVSITCKASQDVGTAVAWYQQKPGQSPKLLIYWASTRHTGVPDRFTGSGSGTDFTLTISNVQSEDLTDYFCQQYSSYVTFGAGTKLELK
notes: mouse monoclonal (hybridoma)
B14: Ab27 (antibody, V domains shown)
VH: QVQLQQSGAELVRPGSSVKISCKASGYAFSNYWMNWVKQRPGQGLEWIGQIYPGNGDTNYNGKFKGKATLTADKSSTTAYIQLSSLTSEDSAVYFCTRIYYGNSFAYWGQGTLVTVS
VL: DIVMTQSPSSLTVTAGERVTMSCKSSQSLLNSGNQKNYLTWYQQKPGQPPKLLIYWASTRESGVPDRFTGSGSGTDFTLTISRVQAQDLAVYYCQNDYYYPLTFGAGTKLELK
notes: mouse monoclonal (hybridoma)
B15: Ab32 (antibody, V domains shown)
VH: QVQLKESGPGLVAPSQSLSITCTVSGFSLTSHGVHWVRQPPGKGLEWLGVIWAGGSINFNSALMSRLSISKDNSKNQVFLKMNSLQSDDTAMYYCARDYYYGIGLDYWGQGTTLTVS
VL: B14 VL with T12S, T14S, R18K, T40A, W56G, R83S, Q87E, L102F, A106S, L112I
notes: mouse monoclonal (hybridoma)
B16: Ab28 (antibody, V domains shown)
VH: B15 VH
VL: B14 VL with T12S, T14S, R18K, T40A, W56G, R83S, Q87E, L102F, A106S, L112I
notes: mouse monoclonal (hybridoma)
B17: Ab33 (antibody, V domains shown)
VH: DVNLVESGGGLVKPGGSLKLSCAASGFTFSSYTMSWVRQTPEKRLEWVATITYGRIYTYYLDSVKGRFTISRDNAKNTLYLQMSSLRSEDTAMYYCTRMITGNAMDSWGLGTSVTVSS
VL: B14 VL with R18K, R83G, A86G, Q87E, Y99S, A106G
notes: mouse monoclonal (hybridoma)
B18: Ab35 (antibody, V domains shown)
VH: DVFLQESGPGLVKPSQSLSLTCTVTGYSITSDYAWNWIRQFPGNKLEWVTYIGYSGTTSYNPSLKSRISITRDTSKNQFFLQLNSVSTEDTATYYCVRRGSYYGSYWFFDVWGAGTTVTVSS
VL: QVVLSQSPAILSASPGEKVTMTCRASSSVSYMHWYQQKPGSSPKPWIYATSNLASGVPPHFSGSGSGTSYSLTISRVEAEDAATYYCQQWTSNPPTFGGGTKLEIK
notes: mouse monoclonal (hybridoma)
B19: Ab04 (antibody, V domains shown)
VH: EVQLQQSGPELVKPGASVKMSCMASGYTFTDYNIHWVKRSHGSRLEWIGYISPISGGAGYNQKFMDKATLTVDKSSNTAYMELRSLTSEDSAVYYCTRGDYWGQGTTLTVSS
VL: DIVMTQSPSSLAVTVGEKVTMSCKSSQSLLNSGNQKNYLTWYQQKPGQPPKLLIYWASTRKSGVPDRFTGSGSGTDFTLTISSVQAEDLGIYYCLNDYGFPLTFGAGSKLELK
notes: mouse monoclonal (hybridoma)
B20: Ab29 (antibody, V domains shown)
VH: EVLLQQSGPELVKPGASVKIPCKASGYTLTDHSMDWVKQSHGKSLEWIGNILPNNGGNIYNQKFRGKATLTVDKSSSTAYMELRSLTSEDTAVYNCARGHYGNSFAYWGQGTLVIVS
VL: DIVMTQSPSSLTVRAGEKVTIYCKSSQSLFNSGNQKNYLTWYQQKPGQPPKLLIYWASTRESGVPHRFTGSGSGTDFTLTISSMQADDLATYYCQNGYFFPYTFGGGTKLEIK
notes: mouse monoclonal (hybridoma)
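For result in this document: antibody binding to cells detected with a fluorescently labelled secondary antibody, read out as median fluorescence intensity (MFI) by flow cytometry.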

The first assay has as its target T1, human Claudin18.2 (CLDN18.2) (human, UniProt P56856 1-261).
T1 construct: the cell line is named under assay; also called human Claudine18.2; hClaudin18.2
Nature of the assay: FACS on CHOK1-18.2 cells.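 Also: antibody binding to the cells detected with a fluorescently labelled secondary antibody and read out as median fluorescence intensity by flow cytometry.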
Protocol: (§1) The specificity and cross-reactivity of these subclones were confirmed with FACs analysis. […] Fluorescent dye-conjugated secondary antibody was used to detect the binding of the primary antibody with the cells. Median fluorescence intensity (MFI) was measured by FACs analysis.
For the molecule B1, the “FACS MFI” value stood at 10100.

In the case of B2, the “FACS MFI” value was 9730.

Regarding B3, the “FACS MFI” value stood at 9020.

Regarding B4, the “FACS MFI” value was found to be 7580.

As to B5, the “FACS MFI” value was 8600.

With B6, the “FACS MFI” value came out at 15700.

As for B7, the “FACS MFI” value was found to be 1960.

As to B8, the “FACS MFI” value worked out at 9070.

Consider B9, for which the “FACS MFI” value came to 7560.

B10: the “FACS MFI” value came out at 18000.

With B11, the “FACS MFI” value turned out to be 15200.

Consider B12, for which the “FACS MFI” value stood at 5520.

Regarding B13, the “FACS MFI” value amounted to 12300.

Regarding B14, the “FACS MFI” value turned out to be 7150.

Turning to B15, the “FACS MFI” value stood at 8730.

Regarding B16, the “FACS MFI” value is 8880.

Take B17: the “FACS MFI” value was found to be 8200.

For B18, the “FACS MFI” value was found to be 11300.

On to B19, for which the “FACS MFI” value was 17600.

As to B20, the “FACS MFI” value turned out to be 19100.

The next assay deals with T2, human Claudin18.1 (CLDN18.1) (human, UniProt P56856 1-261).
T2 construct: whole, on cells; also called human Claudine18.1
Nature of the assay: FACS on CHOK1-18.1 cells.
Protocol: as §1
As for B1, the “FACS MFI” value was 79.4.

B2: the “FACS MFI” value amounted to 80.8.

Turning to B3, the “FACS MFI” value is 82.3.

With B4, the “FACS MFI” value was 82.3.

As for B5, the “FACS MFI” value worked out at 82.3.

On to B7, for which the “FACS MFI” value was 95.6.

In the case of B8, the “FACS MFI” value came to 91.1.

Consider B9, for which the “FACS MFI” value was found to be 98.5.

As to B11, the “FACS MFI” value worked out at 4590.

B12: the “FACS MFI” value worked out at 97.

For B13, the “FACS MFI” value turned out to be 7250.

Consider B14, for which the “FACS MFI” value amounted to 97.

With B15, the “FACS MFI” value came out at 172.

B16: the “FACS MFI” value came out at 206.

As to B17, the “FACS MFI” value is 97.

With B18, the “FACS MFI” value is 92.6.

In the case of B19, the “FACS MFI” value was 6920.

Take B20: the “FACS MFI” value was 97.

The target of a further assay is T2, human Claudin18.1 (CLDN18.1). Briefly: FACS on CHOK1-18.1 cells. This is another data set of the same source.
Protocol: as §1
On to B1, for which the binding result is listed as “no binding”.

As for B2, the binding result is listed as “no binding”.

As to B3, the binding result is reported as “no binding”.

Regarding B4, the binding result is “no binding”.

On to B5, for which the binding result is listed as “no binding”.

For B7, the binding result is “no binding”.

For the molecule B8, the binding result is “no binding”.

With B9, the binding result is “no binding”.

B12: the binding result is reported as “no binding”.

In the case of B14, the binding result was “no binding”.

As for B15, the binding result is recorded as “no binding”.

For B16, the binding result is “no binding”.

In the case of B17, the binding result was “no binding”.

With B18, the binding result was “no binding”.

Turning to B20, the binding result is “no binding”.

Source of the values: patent publication US20230095569A1 (ANTENGENE BIOLOGICS, published 2023).
